Target: FANCD2 (Homo sapiens, UniProt Q9BXW9 1-1451)
Assay: EMSA; 200 ng protein; 20 mM HEPES pH 7.6, 5 mM EDTA, 1 mM DTT, 150 mM KCl, 50 mM (NH4)2SO4, 1% Tween-20; 20 min, room temperature; native 4% PAGE
Settings: protein: recombinant; tags: His6 removed by thrombin; label: 32P; blunt (duplex implied; only one strand printed for EMSA)

Sequence of FANCD2 (Q9BXW9 whole entry): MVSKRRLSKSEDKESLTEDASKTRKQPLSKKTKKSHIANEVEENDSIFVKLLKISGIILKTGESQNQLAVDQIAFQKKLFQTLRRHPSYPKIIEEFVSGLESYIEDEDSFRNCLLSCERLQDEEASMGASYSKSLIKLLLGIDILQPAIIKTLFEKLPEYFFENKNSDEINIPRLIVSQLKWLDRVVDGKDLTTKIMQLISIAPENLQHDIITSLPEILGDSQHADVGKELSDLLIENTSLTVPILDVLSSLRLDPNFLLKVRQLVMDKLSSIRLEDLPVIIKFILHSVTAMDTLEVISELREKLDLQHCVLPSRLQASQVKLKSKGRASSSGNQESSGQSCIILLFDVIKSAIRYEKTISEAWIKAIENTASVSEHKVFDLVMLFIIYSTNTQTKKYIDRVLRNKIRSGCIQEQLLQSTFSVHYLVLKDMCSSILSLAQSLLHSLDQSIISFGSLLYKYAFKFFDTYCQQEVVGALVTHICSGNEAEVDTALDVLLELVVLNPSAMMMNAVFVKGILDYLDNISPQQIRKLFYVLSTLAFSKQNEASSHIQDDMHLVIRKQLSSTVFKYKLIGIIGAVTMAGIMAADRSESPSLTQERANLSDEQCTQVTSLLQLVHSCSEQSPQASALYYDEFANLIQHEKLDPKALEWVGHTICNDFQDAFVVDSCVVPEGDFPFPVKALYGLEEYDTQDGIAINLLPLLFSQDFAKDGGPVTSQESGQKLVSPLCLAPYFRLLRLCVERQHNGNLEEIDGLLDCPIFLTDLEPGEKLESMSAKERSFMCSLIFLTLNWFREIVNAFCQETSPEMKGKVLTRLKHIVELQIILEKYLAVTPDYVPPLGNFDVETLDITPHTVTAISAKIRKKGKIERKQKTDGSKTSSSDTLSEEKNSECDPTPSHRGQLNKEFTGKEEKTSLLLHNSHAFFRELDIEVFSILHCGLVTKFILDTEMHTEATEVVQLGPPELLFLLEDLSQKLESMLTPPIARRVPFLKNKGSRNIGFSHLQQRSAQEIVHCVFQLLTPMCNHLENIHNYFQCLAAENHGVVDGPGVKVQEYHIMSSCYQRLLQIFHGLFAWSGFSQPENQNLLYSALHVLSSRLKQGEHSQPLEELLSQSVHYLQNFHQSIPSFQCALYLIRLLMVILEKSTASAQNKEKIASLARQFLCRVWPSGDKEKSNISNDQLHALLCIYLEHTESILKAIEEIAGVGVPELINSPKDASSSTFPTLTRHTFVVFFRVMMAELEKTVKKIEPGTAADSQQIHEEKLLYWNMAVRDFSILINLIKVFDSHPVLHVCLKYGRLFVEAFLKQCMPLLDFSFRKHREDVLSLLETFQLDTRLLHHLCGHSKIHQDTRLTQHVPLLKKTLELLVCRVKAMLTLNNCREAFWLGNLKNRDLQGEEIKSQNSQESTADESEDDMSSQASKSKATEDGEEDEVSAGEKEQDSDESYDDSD

B1: kB1 (dsDNA)
DNA 1: GAGTATGGGGACCCCCCCTTAA
DNA 2: TTAAGGGGGGGTCCCCATACTC
Does B1 bind?
Result: binds

Reference: paper PMC3166142, “Direct Inhibition of TNF-α Promoter Activity by Fanconi Anemia Protein FANCD2”
